In test [1] the target is bovine aorta ATPDase type II (78 KDa catalytic unit) (bovine) (UniProt O18956). Nature of the test: precipitation of ADPase activity with lectin-agarose.
Test [2] shares this target. Nature of the test: precipitation with lectin-agarose, elution with Me-alpha-D-mannopyranoside.
Test [3] has the same target. Nature of the test: precipitation with lectin-agarose, elution with D-GlcNAc.

Sequence of UniProt O18956 (O18956 whole entry, form in doubt): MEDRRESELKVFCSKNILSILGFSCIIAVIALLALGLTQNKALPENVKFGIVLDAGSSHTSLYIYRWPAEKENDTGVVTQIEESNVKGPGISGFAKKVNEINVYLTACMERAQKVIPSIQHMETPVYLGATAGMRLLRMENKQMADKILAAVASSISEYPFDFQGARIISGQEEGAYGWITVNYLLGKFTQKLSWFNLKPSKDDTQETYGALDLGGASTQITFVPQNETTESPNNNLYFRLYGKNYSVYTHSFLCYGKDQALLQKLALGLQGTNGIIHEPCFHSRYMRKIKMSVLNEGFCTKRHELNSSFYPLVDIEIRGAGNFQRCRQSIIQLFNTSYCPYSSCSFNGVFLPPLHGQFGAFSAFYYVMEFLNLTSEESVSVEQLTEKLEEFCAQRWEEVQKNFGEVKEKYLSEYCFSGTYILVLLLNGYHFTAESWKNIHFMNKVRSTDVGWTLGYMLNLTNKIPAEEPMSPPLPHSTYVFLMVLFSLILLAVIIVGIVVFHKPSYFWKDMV

In test [1], “Con A conjugated to agarose (from UniProt P02866)” gave a Relative ADPase activity, Bound fraction of 95% and a Relative ADPase activity, Supernatant (unbound) fraction of 5%. Moreover, the Relative ADPase activity, Eluted fraction in test [2] is 62%.

Turning to “WGA conjugated to agarose (from UniProt P10968 27-197)”, in test [1], the Relative ADPase activity, Bound fraction is 95% and the Relative ADPase activity, Supernatant (unbound) fraction amounted to 5%. In test [3], this substance showed a Relative ADPase activity, Eluted fraction of 69%.

The record behind these values is patent US20030040094A1.
